Assay results: paper PMC4392886 (Innate immunity, 2014)
No end group written: not given here.

Molecular target: recombinant human TLR2 ectodomain (human, UniProt O60603 19-590, N-linked glycans, predominantly of the high-mannose type)
Assay: native gel or EMSA

recombinant human TLR2 ectodomain, sequence (O60603 19-590): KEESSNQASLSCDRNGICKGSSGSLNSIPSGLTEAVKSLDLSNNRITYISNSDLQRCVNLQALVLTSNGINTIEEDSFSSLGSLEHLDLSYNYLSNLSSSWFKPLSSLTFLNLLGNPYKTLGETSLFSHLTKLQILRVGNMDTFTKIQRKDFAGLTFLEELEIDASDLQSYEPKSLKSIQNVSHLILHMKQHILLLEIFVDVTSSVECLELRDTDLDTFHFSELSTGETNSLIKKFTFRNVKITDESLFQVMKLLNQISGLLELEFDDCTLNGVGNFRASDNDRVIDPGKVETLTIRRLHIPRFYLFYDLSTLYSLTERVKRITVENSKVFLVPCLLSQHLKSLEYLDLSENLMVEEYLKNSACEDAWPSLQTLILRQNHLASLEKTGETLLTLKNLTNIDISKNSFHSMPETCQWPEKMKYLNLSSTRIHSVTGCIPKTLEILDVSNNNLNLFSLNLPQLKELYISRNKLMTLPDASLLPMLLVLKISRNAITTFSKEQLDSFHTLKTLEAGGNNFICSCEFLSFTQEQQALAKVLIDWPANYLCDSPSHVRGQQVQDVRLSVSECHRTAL

C(2,3‑bis‑palmitoyloxypropyl)GDPKHPKSFK-{Aca-Aca-Fluorescein} [S-(2,3-bis-palmitoyloxypropyl)-Cys-Gly-Asp-Pro-Lys-His-Pro-Lys-Ser-Phe-K-Aca-Aca-Fluorescein]: binds.
